PMC3883677, “The Quaternary Structure of the Recombinant Bovine Odorant-Binding Protein Is Modulated by Chemical Denaturants” (PLoS ONE, 2014)

Molecular target: the molecule itself
Assay: SEC; Superdex-75 PC 3.2/30, calibrated with mass standards; 20 mM Na-phosphate pH 7.8, no GdnHCl; protein 0.1-0.2 mg/ml; monomer to dimer

B1: recombinant bovine odorant-binding protein (natural protein)
chain: AQEEEAEQNLSELSGPWRTVYIGSTNPEKIQENGPFRTYFRELVFDDEKGTVDFYFSVKRDGKWKNVHVKATKQDDGTYVADYEGQNVFKIVSLSRTHLVAHNINVDKHGQTTELTELFVKLNVEDEDLEKFWKLTEDKGIDKKNVVNFLENEDHPHPE
notes: PDB 1OBP is the cited crystal structure of the native tissue-extracted bOBP dimer (domain-swapped); also called bOBP; recombinant bOBP; source: E. coli BL21(DE3), plasmid pT7-7-bOBP, purified (Ni-agarose, HisGraviTrap)
- stoichiometry N: 2
